Experimental data: patent publication US20240084003A1

Target: monkey CD22 on HEK293T-monkey CD22 cells (monkey)
Test: FACS, HEK293T-monkey CD22 cells

Chain of monkey CD22 on HEK293T-monkey CD22 cells (monkey) (chain, as listed by the source limits assumed): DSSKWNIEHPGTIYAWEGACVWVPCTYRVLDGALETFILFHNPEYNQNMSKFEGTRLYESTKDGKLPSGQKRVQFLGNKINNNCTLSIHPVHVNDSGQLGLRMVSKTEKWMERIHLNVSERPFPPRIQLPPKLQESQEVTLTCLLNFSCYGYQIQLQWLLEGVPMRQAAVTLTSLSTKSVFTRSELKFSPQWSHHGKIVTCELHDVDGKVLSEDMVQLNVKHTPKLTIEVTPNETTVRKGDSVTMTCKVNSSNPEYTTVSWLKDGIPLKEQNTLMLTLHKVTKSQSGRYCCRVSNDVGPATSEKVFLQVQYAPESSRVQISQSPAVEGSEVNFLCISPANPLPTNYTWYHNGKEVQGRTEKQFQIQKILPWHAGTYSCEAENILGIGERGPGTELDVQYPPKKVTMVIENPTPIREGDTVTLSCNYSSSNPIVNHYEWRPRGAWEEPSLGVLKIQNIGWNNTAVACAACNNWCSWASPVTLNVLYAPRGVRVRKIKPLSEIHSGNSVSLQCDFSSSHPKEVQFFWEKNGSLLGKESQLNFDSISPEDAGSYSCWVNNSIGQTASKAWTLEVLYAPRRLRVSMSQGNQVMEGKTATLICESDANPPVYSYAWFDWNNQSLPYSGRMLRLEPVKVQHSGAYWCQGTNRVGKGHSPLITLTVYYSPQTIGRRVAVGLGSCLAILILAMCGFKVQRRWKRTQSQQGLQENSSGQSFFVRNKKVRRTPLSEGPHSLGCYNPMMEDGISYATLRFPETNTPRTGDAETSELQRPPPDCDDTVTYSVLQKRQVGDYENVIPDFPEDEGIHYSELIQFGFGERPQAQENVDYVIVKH

Maximum mean fluorescence intensity: 1490 MFI
B1: F1.280.1 (antibody, human IgG1, kappa, V domains shown)
VH: QIQLVQSGPELKKPGETVKISCKASGYTFTTYGMSWVKQTPGKGLTWMGWINTDSGVPTYADDFKRRFAFSLEASATTAYLQINNLKNEDTATYFCARGGPDYWGQGTTLTVSS
VL: DILLTQSPATLSVTPGETVSLSCRASQSIYKNLHWYHQKSHRSPRLLIKYASDSISGIPSRFTGSGSGTNFTLSINSVKPEDEGIYYCLQGYIVPLTFGAGTKLELKR
